How the values were obtained:
Insr = target: T1, Insr (Rattus norvegicus, UniProt P15127); assay: Phosphorylation of insulin receptors (Tyr1158/Tyr1162/Tyr1163) in L6 cells, Western blot; type: cell-based; conditions: 10 μM insulin (Ins) alone, 5 min, FIG. 1(a)
T1 construct: L6 cells were fully differentiated with α-MEM supplemented with 2% FBS for 5 days to myotubes; endogenous in cells; host or cells: L6 myoblasts differentiated to myotubes
Method: (§1) […] muscle myoblast cells (L6) was a generous gift from Professor Hitoshi Ashida's Lab. (Kobe University, Kobe, Japan). The cells were grown and maintained in α-minimal essential medium (α-MEM, 12000022, GIBCO, CA, USA) containing 10% fetal bovine serum (FBS, GIBCO) and 1% penicillin streptomycin (GIBCO) in a cell culture incubator with 5% CO2 at 37° C. Prior to the following experiments, the cells were seeded and cultured at a density of 8×10^3 cells per well in 96-well plates or 2.5×10^5 cells per well in 6-well plates. After the myoblasts achieved 80% confluence, the cells were incubated for 5 days in the α-MEM supplemented with 2% FBS to induce differentiation to myotubes.
L6 cells were fully differentiated with α-MEM supplemented with 2% FBS for 5 days to myotubes. The cells were washed twice with Phosphate Buffered Saline (PBS) containing 0.1% BSA and subsequently incubated α-MEM containing 0.25% BSA with or without 100 nM of S961, and treated with or without 100 μM of Tetracosanol for 90 min. Then, the cells were treated with or without 10 μM of insulin for 5 min. […] The levels of the proteins including phospho-Insulin receptors (Tyr1158/Tyr1162/Tyr1163) and Insulin receptor (Cell Signaling, Boston, Mass., USA) were detected and evaluated by Western blot with primary antibody.
The cells after treatments were collected and washed twice in cold KRH buffer, and then lysed in ice-cold RIPA buffer incubation at 4° C. for 60 min. After centrifugation at 12,000×g for 30 min at 4° C., the supernatant was kept and quantified by Bradford protein assay (Bio-Rad, Hercules, Calif., USA). […] The signals were monitored using Western Lightning™ Plus-ECL (Perkin Elmer Life Sciences) and the PVDF membrane was exposed to Luminescent image analyzer (LAS)-3000 (Fujifilm, Minato, Tokyo, Japan). Acquired data were analyzed and compared the difference among treatments. […]

AKT = assay: Phosphorylation of AKT on Thr308 in L6 cells, Western blot; type: cell-based, rat; conditions: 10 μM insulin (Ins) alone, 30 min, FIG. 1(b)
Method: as §1
The L6 cells were fully differentiated with α-MEM supplemented with 2% FBS for 5 days to myotubes. The cells were washed twice with PBS containing 0.1% BSA and subsequently incubated α-MEM containing 0.25% BSA with or without 100 nM of S961, and then treated with or without 100 μM of Tetracosanol for 90 min. Then, the cells were treated with or without 10 μM of insulin for 30 min. Finally, the cells were collected and washed twice in KRH buffer, then lysed in ice-cold RIPA buffer for 60 min. After centrifugation at 12,000×g for 30 min. at 4° C., the supernatant was kept at −80° C. until use. The levels of the proteins including phospho-AKT (Thr308), AKT, phospho-AMPK (Thr172), and AMPK (Cell Signaling) were detected and evaluated by Western blot with primary antibody.
The cells after treatments were collected and washed twice in cold KRH buffer, and then lysed in ice-cold RIPA buffer incubation at 4° C. for 60 min. After centrifugation at 12,000×g for 30 min at 4° C., the supernatant was kept and quantified by Bradford protein assay (Bio-Rad, Hercules, Calif., USA). The proteins were separated using sodium dodecyl sulfate polyacrylamide gel electrophoresis (SDS-PAGE) and subsequently transferred to PVDF (Perkin Elmer Life Sciences, Boston, Mass., USA) membrane. […] The signals were monitored using Western Lightning™ Plus-ECL (Perkin Elmer Life Sciences) and the PVDF membrane was exposed to Luminescent image analyzer (LAS)-3000 (Fujifilm, Minato, Tokyo, Japan). Acquired data were analyzed and compared the difference among treatments.
The differentiated L6 cells were incubated with 100 μM of tetracosanol (Tet) at 37° C. for 90 min, and then treated 10 μM of insulin (Ins) at 37° C. for 5 or 30 min. The cell lysates were separated by SDS-PAGE and blotted 5 min for phospho-Insr on Tyr1158, 1162, and 1163 (Insr, 100 kDa), and phospho-AKT on Thr308 protein level was measured at 30 min in Western blot analysis.

T1 sequence (P15127 27-759 limits assumed): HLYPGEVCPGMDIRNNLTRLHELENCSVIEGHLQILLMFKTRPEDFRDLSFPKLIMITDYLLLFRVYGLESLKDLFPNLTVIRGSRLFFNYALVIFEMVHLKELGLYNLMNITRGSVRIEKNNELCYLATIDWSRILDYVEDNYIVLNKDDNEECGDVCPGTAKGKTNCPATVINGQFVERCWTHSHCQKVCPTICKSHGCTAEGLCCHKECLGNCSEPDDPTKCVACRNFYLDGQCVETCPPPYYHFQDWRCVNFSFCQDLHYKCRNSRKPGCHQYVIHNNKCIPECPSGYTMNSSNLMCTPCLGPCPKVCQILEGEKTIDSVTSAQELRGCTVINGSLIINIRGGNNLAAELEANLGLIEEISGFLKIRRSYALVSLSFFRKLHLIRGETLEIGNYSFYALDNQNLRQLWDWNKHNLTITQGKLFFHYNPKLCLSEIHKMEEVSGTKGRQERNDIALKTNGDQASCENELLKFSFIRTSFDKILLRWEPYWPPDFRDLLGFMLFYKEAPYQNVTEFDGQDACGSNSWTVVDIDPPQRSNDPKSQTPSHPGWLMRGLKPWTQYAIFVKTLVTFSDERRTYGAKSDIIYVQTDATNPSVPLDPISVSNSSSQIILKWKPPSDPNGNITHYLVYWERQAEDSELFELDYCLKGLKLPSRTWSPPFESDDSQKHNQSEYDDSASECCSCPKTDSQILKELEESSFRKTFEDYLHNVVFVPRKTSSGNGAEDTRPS
T1 sequence (P15127 764-1383 limits assumed): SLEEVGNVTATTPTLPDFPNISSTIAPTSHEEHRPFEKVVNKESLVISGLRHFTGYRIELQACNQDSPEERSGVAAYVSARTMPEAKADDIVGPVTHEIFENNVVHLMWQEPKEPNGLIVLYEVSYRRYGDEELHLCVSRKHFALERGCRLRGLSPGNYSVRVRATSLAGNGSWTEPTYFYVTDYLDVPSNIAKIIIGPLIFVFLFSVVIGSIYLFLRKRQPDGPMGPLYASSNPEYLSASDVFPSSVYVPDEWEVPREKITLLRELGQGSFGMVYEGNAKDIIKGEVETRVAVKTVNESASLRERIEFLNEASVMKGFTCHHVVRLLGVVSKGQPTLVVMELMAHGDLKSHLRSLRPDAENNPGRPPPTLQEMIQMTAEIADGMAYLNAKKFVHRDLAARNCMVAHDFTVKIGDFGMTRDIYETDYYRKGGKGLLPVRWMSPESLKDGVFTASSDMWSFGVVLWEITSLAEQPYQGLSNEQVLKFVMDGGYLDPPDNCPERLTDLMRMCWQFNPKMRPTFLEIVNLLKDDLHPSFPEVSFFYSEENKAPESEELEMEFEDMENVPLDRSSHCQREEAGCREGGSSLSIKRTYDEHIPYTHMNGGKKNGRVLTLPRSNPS

insulin: Insulin purchased from Novo-Nordisk [reference compound]
phosphorylation of phospho-Insr on Tyr1158, 1162, and 1163 (Insr): tended to be enhanced | phospho-AKT on Thr 308 (AKT): induced the phospho-AKT on Thr 308

Reference: patent US9226950B2, “Method and composition for treating diabetes mellitus” (National Dong Hwa University, priority 2013, dated 2016)
